Patent US20240287547, “GENETIC MODIFICATION” (Peter Biotherapeutics, Inc., published 2024)

What was measured:
Assay in all cases: cell_activity; U937 RT-PCR; also edits KRAS in HEK293
[1] = target: pb76 DLRRR (7-zinc finger array + triple R element) (artificial)
Description: (§1) As described above, each plasmid, pb74, pb75, and pb76 was introduced into U937 cells by electroporation. A “no DNA” transfection was used as control. […] post electroporation, cells transfected with these plasmids were detached and collected. Total RNAs from each condition were then extracted by using Trizol reagent. Five hundred nanograms of total RNA was then converted into DNA by reverse transcription (RT) reaction, followed by PCR using a primer set of Pop133 (SEQ ID. NO. 228) and Pop134 (SEQ ID. NO. 229). Three independent experiments were conducted. KRAS mRNA expression was quantitated by calculations of amplification band intensity of RT-PCR KRAS normalized by corresponding that of Ref-BMG using Bio-Rad Imagelab software. Introduction of pb74 (DLR), ob75 (DLRR), and pb76 (DLRRR) inhibit KRAS gene expression more than 50%.

[2] = target: pb75 DLRR (7-zinc finger array + double R element) (artificial)
Description: as §1

[3] = target: pb74 DLR (7-zinc finger array + single R element) (artificial)
Description: as §1

Measured: activity

Sequence of pb74 DLR (7-zinc finger array + single R element) (artificial) (chain, as listed by the source): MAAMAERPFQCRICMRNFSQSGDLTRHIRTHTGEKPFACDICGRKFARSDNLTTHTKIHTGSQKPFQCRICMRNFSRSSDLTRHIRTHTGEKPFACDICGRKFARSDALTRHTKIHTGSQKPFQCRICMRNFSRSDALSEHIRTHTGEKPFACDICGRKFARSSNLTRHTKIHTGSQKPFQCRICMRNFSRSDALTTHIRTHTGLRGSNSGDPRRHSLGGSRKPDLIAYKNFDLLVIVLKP
Sequence of pb76 DLRRR (7-zinc finger array + triple R element) (artificial) (chain, as listed by the source): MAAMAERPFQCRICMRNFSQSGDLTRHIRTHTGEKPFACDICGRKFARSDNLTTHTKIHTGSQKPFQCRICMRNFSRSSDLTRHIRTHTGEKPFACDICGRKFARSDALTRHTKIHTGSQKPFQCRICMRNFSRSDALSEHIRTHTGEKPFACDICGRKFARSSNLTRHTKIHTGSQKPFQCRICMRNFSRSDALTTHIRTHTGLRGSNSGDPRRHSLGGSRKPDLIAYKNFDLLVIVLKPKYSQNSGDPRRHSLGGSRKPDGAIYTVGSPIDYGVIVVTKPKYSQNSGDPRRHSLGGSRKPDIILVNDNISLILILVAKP
Sequence of pb75 DLRR (7-zinc finger array + double R element) (artificial) (chain, as listed by the source): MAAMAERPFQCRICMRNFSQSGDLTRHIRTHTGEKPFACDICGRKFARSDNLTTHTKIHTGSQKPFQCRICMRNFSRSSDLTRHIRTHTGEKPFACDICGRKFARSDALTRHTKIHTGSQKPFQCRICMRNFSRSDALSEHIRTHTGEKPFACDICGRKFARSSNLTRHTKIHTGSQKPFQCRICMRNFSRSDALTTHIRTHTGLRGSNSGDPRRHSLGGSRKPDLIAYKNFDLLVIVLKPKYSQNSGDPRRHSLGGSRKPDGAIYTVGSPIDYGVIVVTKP

B1: KRAS exon 1 site (dsDNA)
DNA 1: TTGGAGCTGGTGGCGTAGGCA
DNA 2: TGCCTACGCCACCAGCTCCAA
> 50 % inhibition of KRAS mRNA: all assays above
